In PMC3111228 (The Journal of neuroscience : the official journal of the …, 2011):

B1: GST-mGluR1-Cprox with mGluR5 888-EKSTRGQHL-896 in place of 901-…-909 (domain or fragment)
chain: PERNVRSAFTTSDVVRMHVGDGKLPCRSNTFLNIFRRKKPGAGNANSNGKSVSWSEPGGEKSTRGQHLWQRLSVHVKTNETACNQTAVIKPLTKSYQGSGKSLTFSDASTKTLYNVEE
B2: GST-mGluR1 V909L (domain or fragment)
chain: PERNVRSAFTTSDVVRMHVGDGKLPCRSNTFLNIFRRKKPGAGNANSNGKSVSWSEPGGRQAPKGQHLWQRLSVHVKTNETACNQTAVIKPLTKSYQGSGKSLTFSDASTKTLYNVEE
B3: GST-mGluR5-Cprox with EKST exchanged (domain or fragment)
chain: PERNVRSAFTTSTVVRMHVGDGKSSSAASRSSSLVNLWKRRGSSGETLSSNGKSVTWAQNRQAPRGQHLWQRLSVHINKKENPNQTAVIKPFPKSTENRGPGAAAGGGSGPGVAGAG

The binders below were run against recombinant CaM (calmodulin) (UniProt P0DP23 1-149) (assay: pull-down).

Binding result, binds:
B1
B2
B3
